The target in this assay is BIQ, fluorescent reporter containing an IQ domain sequence derived from neuromodulin (UniProt P17677). In words: other fluorescence titration.

Drawing on article PMC2791412, this text covers stoichiometry N for 1 substance.

BIQ, fluorescent reporter containing an IQ domain sequence derived from neuromodulin, sequence (P17677 31-60): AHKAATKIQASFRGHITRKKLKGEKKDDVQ

For “calmodulin (native vertebrate CaM) (from UniProt P0DP23 1-149) (natural protein)”, the stoichiometry N (commonly the number of molecules, sites or subunits per partner or assembly) is 1.
